Test results published in publication PMC9482650, “Quantitative fragmentomics allow affinity mapping of interactomes” (Nature Communications, 2022).
Changes are numbered by the printed parent chain.

Key:
Experiment in all cases: holdup assay
Design in all cases: key: below the threshold = too weak to quantify, mostly under pKd 3.1 to 4
IL16_4, Q14005 = biological target: IL16_4, Q14005
LIN7B, Q9HAP6 = biological target: T1, LIN7B, Q9HAP6
T1 sequence (Q9HAP6 88-185, limits assumed, looked up): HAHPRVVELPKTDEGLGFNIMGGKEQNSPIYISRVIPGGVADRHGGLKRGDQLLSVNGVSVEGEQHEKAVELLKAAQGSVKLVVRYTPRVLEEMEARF

ARHGEF12, Q9NZN5-2 = biological target: ARHGEF12, Q9NZN5-2
Sequence of ARHGEF12, Q9NZN5-2 (Q9NZN5 other isoform, or with tags, fused parts or gaps): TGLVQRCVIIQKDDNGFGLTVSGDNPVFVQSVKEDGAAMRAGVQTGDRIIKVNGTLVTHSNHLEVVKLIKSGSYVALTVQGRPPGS

FRMPD1, Q5SYB0 = biological target: T2, FRMPD1, Q5SYB0
T2 sequence (Q5SYB0 52-145, limits assumed, looked up): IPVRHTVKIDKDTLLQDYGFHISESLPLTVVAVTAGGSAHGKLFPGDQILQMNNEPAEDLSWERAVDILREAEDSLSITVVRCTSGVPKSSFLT

DLG4_1, P78352 = biological target: DLG4_1, P78352
Sequence of DLG4_1, P78352 (P78352 62-152): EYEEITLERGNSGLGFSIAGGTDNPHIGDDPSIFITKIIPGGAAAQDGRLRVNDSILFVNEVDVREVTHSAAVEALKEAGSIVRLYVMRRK

LNX2_3, Q8N448 = biological target: T3, LNX2_3, Q8N448
T3 sequence (Q8N448 463-564, limits assumed, looked up): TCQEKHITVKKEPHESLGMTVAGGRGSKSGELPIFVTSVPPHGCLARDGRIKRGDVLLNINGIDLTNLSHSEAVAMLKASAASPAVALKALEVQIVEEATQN

GRIP1_4, Q9Y3R0 = biological target: T4, GRIP1_4, Q9Y3R0
T4 sequence (Q9Y3R0 467-571, limits assumed, looked up): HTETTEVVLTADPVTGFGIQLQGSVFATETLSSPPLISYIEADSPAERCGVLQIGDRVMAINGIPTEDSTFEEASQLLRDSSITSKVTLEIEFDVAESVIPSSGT

PDZD7_3, Q9H5P4 = biological target: T5, PDZD7_3, Q9H5P4
T5 sequence (Q9H5P4 857-944, limits assumed, looked up): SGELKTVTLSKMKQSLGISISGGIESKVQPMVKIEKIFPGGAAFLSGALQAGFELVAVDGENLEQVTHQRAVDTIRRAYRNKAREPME

GRID2IP_1, A4D2P6 = biological target: GRID2IP_1, A4D2P6
Sequence of GRID2IP_1, A4D2P6 (A4D2P6 1-87): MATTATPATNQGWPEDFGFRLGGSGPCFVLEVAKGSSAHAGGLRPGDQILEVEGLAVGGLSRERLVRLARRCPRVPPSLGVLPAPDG

MPP2, Q14168 = biological target: T6, MPP2, Q14168
T6 sequence (Q14168 180-250, limits assumed, looked up): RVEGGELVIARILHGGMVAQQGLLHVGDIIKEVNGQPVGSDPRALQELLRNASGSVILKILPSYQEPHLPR

Inadl_3, Q8NI35 = biological target: Inadl_3, Q8NI35
Sequence of Inadl_3, Q8NI35 (Q8NI35 359-469): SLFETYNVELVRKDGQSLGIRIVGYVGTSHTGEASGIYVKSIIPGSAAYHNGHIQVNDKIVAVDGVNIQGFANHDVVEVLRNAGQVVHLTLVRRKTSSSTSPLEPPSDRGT

Inadl_6, Q8NI35 = biological target: Inadl_6, Q8NI35
Sequence of Inadl_6, Q8NI35 (Q8NI35 1058-1167): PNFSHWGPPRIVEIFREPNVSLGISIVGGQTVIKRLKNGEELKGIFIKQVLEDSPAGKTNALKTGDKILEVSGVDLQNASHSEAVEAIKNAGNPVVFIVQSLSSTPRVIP

LIN7C, Q9NUP9 = biological target: T7, LIN7C, Q9NUP9
T7 sequence (Q9NUP9 88-185, limits assumed, looked up): T1 sequence (Q9HAP6 88-185, limits assumed, looked up) with A2S, D13E, V35I, V40I, Q65H, S79K, R89K, A96S

PDZD2_2, O15018 = biological target: T8, PDZD2_2, O15018
T8 sequence (O15018 329-429, limits assumed, looked up): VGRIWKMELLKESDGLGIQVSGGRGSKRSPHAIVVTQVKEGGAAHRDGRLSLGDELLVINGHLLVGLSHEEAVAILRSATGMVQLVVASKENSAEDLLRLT

DVL3, Q92997 = biological target: T9, DVL3, Q92997
T9 sequence (Q92997 244-331, limits assumed, looked up): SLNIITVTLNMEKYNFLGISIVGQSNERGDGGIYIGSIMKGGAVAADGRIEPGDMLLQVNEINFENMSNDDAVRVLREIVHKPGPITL

Inadl_1, Q8NI35 = biological target: Inadl_1, Q8NI35
Sequence of Inadl_1, Q8NI35 (Q8NI35 113-229): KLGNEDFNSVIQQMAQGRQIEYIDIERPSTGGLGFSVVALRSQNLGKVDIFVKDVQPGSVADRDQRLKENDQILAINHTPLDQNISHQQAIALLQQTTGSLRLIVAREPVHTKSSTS

HTRA4, P83105 = biological target: T10, HTRA4, P83105
T10 sequence (P83105 378-476, limits assumed, looked up): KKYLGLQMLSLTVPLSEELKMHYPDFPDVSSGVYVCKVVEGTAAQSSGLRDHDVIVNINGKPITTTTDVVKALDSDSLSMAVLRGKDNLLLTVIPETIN

NHERF4_4, Q86UT5 = biological target: NHERF4_4, Q86UT5
Sequence of NHERF4_4, Q86UT5 (Q86UT5 464-550): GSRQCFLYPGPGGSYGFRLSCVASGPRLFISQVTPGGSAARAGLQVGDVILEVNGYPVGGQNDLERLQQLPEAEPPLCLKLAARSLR

APBA3_1, O96018 = biological target: T11, APBA3_1, O96018
T11 sequence (O96018 389-490, limits assumed, looked up): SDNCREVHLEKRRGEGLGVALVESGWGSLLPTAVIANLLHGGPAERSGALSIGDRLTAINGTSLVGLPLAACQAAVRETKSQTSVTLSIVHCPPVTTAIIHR

FRMPD2_1, Q68DX3 = biological target: FRMPD2_1, Q68DX3
Sequence of FRMPD2_1, Q68DX3 (Q68DX3 770-861): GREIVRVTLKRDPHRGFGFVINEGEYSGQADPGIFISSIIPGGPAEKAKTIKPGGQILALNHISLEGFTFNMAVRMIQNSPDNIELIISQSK

MAGI2_5, Q86UL8 = biological target: MAGI2_5, Q86UL8
Sequence of MAGI2_5, Q86UL8 (Q86UL8 915-1017): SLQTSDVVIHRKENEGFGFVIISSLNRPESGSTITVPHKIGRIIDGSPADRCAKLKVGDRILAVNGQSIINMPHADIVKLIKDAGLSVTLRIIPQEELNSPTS

Inadl_8, Q8NI35 = biological target: Inadl_8, Q8NI35
Sequence of Inadl_8, Q8NI35 (Q8NI35 1425-1530): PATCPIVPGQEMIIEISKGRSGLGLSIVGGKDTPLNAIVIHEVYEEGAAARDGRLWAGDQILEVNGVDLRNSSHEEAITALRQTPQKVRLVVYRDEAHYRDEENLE

Inadl_9, Q8NI35 = biological target: Inadl_9, Q8NI35
Sequence of Inadl_9, Q8NI35 (Q8NI35 1530-1615): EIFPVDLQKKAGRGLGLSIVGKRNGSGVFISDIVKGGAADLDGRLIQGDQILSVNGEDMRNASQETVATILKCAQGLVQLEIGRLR

MAST2, Q6P0Q8 = biological target: MAST2, Q6P0Q8
Sequence of MAST2, Q6P0Q8 (Q6P0Q8 1099-1202): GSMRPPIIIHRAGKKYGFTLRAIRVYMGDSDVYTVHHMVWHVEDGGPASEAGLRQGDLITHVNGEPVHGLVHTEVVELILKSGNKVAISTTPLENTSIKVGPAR

NHERF4_1, Q86UT5-2 = biological target: NHERF4_1, Q86UT5-2
Sequence of NHERF4_1, Q86UT5-2 (Q86UT5 other isoform, or with tags, fused parts or gaps): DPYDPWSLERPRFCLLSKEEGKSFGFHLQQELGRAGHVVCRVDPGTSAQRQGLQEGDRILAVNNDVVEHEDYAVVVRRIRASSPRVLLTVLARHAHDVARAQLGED

LNX1_3, Q8TBB1 = biological target: LNX1_3, Q8TBB1
Sequence of LNX1_3, Q8TBB1 (Q8TBB1 500-596): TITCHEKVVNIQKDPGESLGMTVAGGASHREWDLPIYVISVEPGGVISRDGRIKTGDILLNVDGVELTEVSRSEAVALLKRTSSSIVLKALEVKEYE

[1] = modified: phospho on T at position -2 from the C-terminal residue
[2] = plain residues with an end cap or a label only (N-terminal biotin on a linker: ado-ado)

Sequence of IL16_4, Q14005 (Q14005 1229-1329): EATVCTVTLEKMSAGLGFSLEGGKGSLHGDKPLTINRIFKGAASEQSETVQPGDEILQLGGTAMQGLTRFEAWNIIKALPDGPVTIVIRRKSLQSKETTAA

RLQRRRETQV [HPV18-E6_-2P, P06463]
pKd (IL16_4, Q14005; [1]): below the threshold
pKd (LIN7B, Q9HAP6; [1]): below the threshold
pKd (ARHGEF12, Q9NZN5-2; [1]): below the threshold
pKd (FRMPD1, Q5SYB0; [1]): below the threshold
pKd (DLG4_1, P78352; [1]): below the threshold
pKd (LNX2_3, Q8N448; [1]): below the threshold
pKd (GRIP1_4, Q9Y3R0; [1]): below the threshold
pKd (PDZD7_3, Q9H5P4; [1]): below the threshold
pKd (GRID2IP_1, A4D2P6; [1]): below the threshold
pKd (MPP2, Q14168; [1]): below the threshold
pKd (Inadl_3, Q8NI35; [1]): below the threshold
pKd (Inadl_6, Q8NI35; [1]): below the threshold
pKd (LIN7C, Q9NUP9; [1]): 4.07
pKd (PDZD2_2, O15018; [1]): below the threshold
pKd (DVL3, Q92997; [1]): below the threshold
pKd (Inadl_1, Q8NI35; [1]): below the threshold
pKd (HTRA4, P83105; [1]): below the threshold
pKd (NHERF4_4, Q86UT5; [1]): below the threshold
pKd (APBA3_1, O96018; [1]): below the threshold
pKd (FRMPD2_1, Q68DX3; [1]): below the threshold
pKd (MAGI2_5, Q86UL8; [1]): below the threshold
pKd (Inadl_8, Q8NI35; [1]): below the threshold
pKd (Inadl_9, Q8NI35; [1]): below the threshold
pKd (MAST2, Q6P0Q8; [1]): below the threshold
pKd (NHERF4_1, Q86UT5-2; [1]): 3.6
pKd (LNX1_3, Q8TBB1; [1]): below the threshold

QPCFNKLFPL [LPXN, O60711]
pKd (IL16_4, Q14005; [2]): below the threshold
pKd (LIN7B, Q9HAP6; [2]): below the threshold
pKd (ARHGEF12, Q9NZN5-2; [2]): 3.56
pKd (FRMPD1, Q5SYB0; [2]): below the threshold
pKd (DLG4_1, P78352; [2]): below the threshold
pKd (LNX2_3, Q8N448; [2]): below the threshold
pKd (GRIP1_4, Q9Y3R0; [2]): below the threshold
pKd (PDZD7_3, Q9H5P4; [2]): below the threshold
pKd (GRID2IP_1, A4D2P6; [2]): below the threshold
pKd (MPP2, Q14168; [2]): below the threshold
pKd (Inadl_3, Q8NI35; [2]): below the threshold
pKd (Inadl_6, Q8NI35; [2]): below the threshold
pKd (LIN7C, Q9NUP9; [2]): below the threshold
pKd (PDZD2_2, O15018; [2]): below the threshold
pKd (DVL3, Q92997; [2]): below the threshold
pKd (Inadl_1, Q8NI35; [2]): below the threshold
pKd (HTRA4, P83105; [2]): 3.95
pKd (NHERF4_4, Q86UT5; [2]): below the threshold
pKd (APBA3_1, O96018; [2]): below the threshold
pKd (FRMPD2_1, Q68DX3; [2]): below the threshold
pKd (MAGI2_5, Q86UL8; [2]): below the threshold
pKd (Inadl_8, Q8NI35; [2]): below the threshold
pKd (Inadl_9, Q8NI35; [2]): below the threshold
pKd (MAST2, Q6P0Q8; [2]): 4.75
pKd (NHERF4_1, Q86UT5-2; [2]): below the threshold
pKd (LNX1_3, Q8TBB1; [2]): below the threshold

SSALYGESDL [ACTN2, P35609]
pKd (IL16_4, Q14005; [2]): below the threshold
pKd (LIN7B, Q9HAP6; [2]): 3.76
pKd (ARHGEF12, Q9NZN5-2; [2]): 4.06
pKd (FRMPD1, Q5SYB0; [2]): below the threshold
pKd (DLG4_1, P78352; [2]): below the threshold
pKd (LNX2_3, Q8N448; [2]): below the threshold
pKd (GRIP1_4, Q9Y3R0; [2]): below the threshold
pKd (PDZD7_3, Q9H5P4; [2]): below the threshold
pKd (GRID2IP_1, A4D2P6; [2]): below the threshold
pKd (MPP2, Q14168; [2]): below the threshold
pKd (Inadl_3, Q8NI35; [2]): below the threshold
pKd (Inadl_6, Q8NI35; [2]): below the threshold
pKd (LIN7C, Q9NUP9; [2]): below the threshold
pKd (PDZD2_2, O15018; [2]): below the threshold
pKd (DVL3, Q92997; [2]): below the threshold
pKd (Inadl_1, Q8NI35; [2]): below the threshold
pKd (HTRA4, P83105; [2]): below the threshold
pKd (NHERF4_4, Q86UT5; [2]): below the threshold
pKd (APBA3_1, O96018; [2]): below the threshold
pKd (FRMPD2_1, Q68DX3; [2]): below the threshold
pKd (MAGI2_5, Q86UL8; [2]): below the threshold
pKd (Inadl_8, Q8NI35; [2]): below the threshold
pKd (Inadl_9, Q8NI35; [2]): below the threshold
pKd (MAST2, Q6P0Q8; [2]): 5.52
pKd (NHERF4_1, Q86UT5-2; [2]): 3.88
pKd (LNX1_3, Q8TBB1; [2]): below the threshold

GQEEQVTTRL [TRPC5, Q9UL62]
pKd (IL16_4, Q14005; [2]): below the threshold
pKd (LIN7B, Q9HAP6; [2]): below the threshold
pKd (ARHGEF12, Q9NZN5-2; [2]): 4.9
pKd (FRMPD1, Q5SYB0; [2]): below the threshold
pKd (DLG4_1, P78352; [2]): below the threshold
pKd (LNX2_3, Q8N448; [2]): below the threshold
pKd (GRIP1_4, Q9Y3R0; [2]): below the threshold
pKd (PDZD7_3, Q9H5P4; [2]): 4.89
pKd (GRID2IP_1, A4D2P6; [2]): below the threshold
pKd (MPP2, Q14168; [2]): below the threshold
pKd (Inadl_3, Q8NI35; [2]): below the threshold
pKd (Inadl_6, Q8NI35; [2]): 3.79
pKd (LIN7C, Q9NUP9; [2]): below the threshold
pKd (PDZD2_2, O15018; [2]): below the threshold
pKd (DVL3, Q92997; [2]): below the threshold
pKd (Inadl_1, Q8NI35; [2]): below the threshold
pKd (HTRA4, P83105; [2]): below the threshold
pKd (NHERF4_4, Q86UT5; [2]): below the threshold
pKd (APBA3_1, O96018; [2]): below the threshold
pKd (FRMPD2_1, Q68DX3; [2]): below the threshold
pKd (MAGI2_5, Q86UL8; [2]): 3.54
pKd (Inadl_8, Q8NI35; [2]): below the threshold
pKd (Inadl_9, Q8NI35; [2]): below the threshold
pKd (MAST2, Q6P0Q8; [2]): 5.62
pKd (NHERF4_1, Q86UT5-2; [2]): 4.38
pKd (LNX1_3, Q8TBB1; [2]): below the threshold

NLSIEKETKL [ASNSD1, Q9NWL6]
pKd (IL16_4, Q14005; [2]): below the threshold
pKd (LIN7B, Q9HAP6; [2]): 4.47
pKd (ARHGEF12, Q9NZN5-2; [2]): 4.43
pKd (FRMPD1, Q5SYB0; [2]): below the threshold
pKd (DLG4_1, P78352; [2]): below the threshold
pKd (LNX2_3, Q8N448; [2]): below the threshold
pKd (GRIP1_4, Q9Y3R0; [2]): below the threshold
pKd (PDZD7_3, Q9H5P4; [2]): 4.68
pKd (GRID2IP_1, A4D2P6; [2]): below the threshold
pKd (MPP2, Q14168; [2]): below the threshold
pKd (Inadl_3, Q8NI35; [2]): below the threshold
pKd (Inadl_6, Q8NI35; [2]): 4.22
pKd (LIN7C, Q9NUP9; [2]): 4.2
pKd (PDZD2_2, O15018; [2]): 3.83
pKd (DVL3, Q92997; [2]): below the threshold
pKd (Inadl_1, Q8NI35; [2]): below the threshold
pKd (HTRA4, P83105; [2]): below the threshold
pKd (NHERF4_4, Q86UT5; [2]): below the threshold
pKd (APBA3_1, O96018; [2]): below the threshold
pKd (FRMPD2_1, Q68DX3; [2]): below the threshold
pKd (MAGI2_5, Q86UL8; [2]): below the threshold
pKd (Inadl_8, Q8NI35; [2]): below the threshold
pKd (Inadl_9, Q8NI35; [2]): below the threshold
pKd (MAST2, Q6P0Q8; [2]): 5.62
pKd (NHERF4_1, Q86UT5-2; [2]): 3.87
pKd (LNX1_3, Q8TBB1; [2]): below the threshold
